Experimental findings from paper PMC11119335 are described below.

For data set [1], the target named is T1, AtCBF1 (Arabidopsis thaliana, UniProt P93835 1-213). In words: competition.
The target in data set [2] is T2, OsDREB1C (WT) (Oryza sativa, UniProt Q9LWV3 1-214). Description: competition.
The target of a further data set is OsDREB1C-m2 (R12K) (Oryza sativa, UniProt Q9LWV3 1-214, R45K). In words: competition.
The target of data set [3] is T1, AtCBF1. In words: EMSA. (In general: A gel shift assay detects complexes by their altered migration in electrophoresis.)
For a further data set, the target named is OsDREB1C-m1 (A10_) (Oryza sativa, UniProt Q9LWV3 1-214, del43-43). Description: EMSA.
Data set [4] has as its target T2, OsDREB1C (WT). In words: EMSA.

T1 sequence (P93835 whole entry): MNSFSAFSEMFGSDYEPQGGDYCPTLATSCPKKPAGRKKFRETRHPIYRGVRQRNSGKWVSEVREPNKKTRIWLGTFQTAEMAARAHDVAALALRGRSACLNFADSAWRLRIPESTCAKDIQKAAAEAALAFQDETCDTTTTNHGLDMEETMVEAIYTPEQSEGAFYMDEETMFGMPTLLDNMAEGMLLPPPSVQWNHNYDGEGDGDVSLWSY

B1: OsNR2 GCCGAC competitor, 29 bp (dsDNA)
DNA 1: CAGGAGCTCGATGTAGCCGACCTCGTCGA
DNA 2: TCGACGAGGTCGGCTACATCGAGCTCCTG
For B1, the binding result with AtCBF1 [1], with OsDREB1C (WT) [2] and in the data set with OsDREB1C-m2 (R12K) was “binds” throughout.

B2: ACCGAC competitor, 29 bp (dsDNA)
DNA 1: CAGGAGCTCGATGTAACCGACCTCGTCGA
DNA 2: TCGACGAGGTCGGTTACATCGAGCTCCTG
B2: the binding result in the data set with AtCBF1 [1] and in the data set with OsDREB1C-m2 (R12K) was “binds” throughout.

B3: ACCGAC probe, 29 bp (dsDNA)
DNA 1: CAGGAGCTCGATGTAACCGACCTCGTCGA
DNA 2: TCGACGAGGTCGGTTACATCGAGCTCCTG
B3: in the data set with AtCBF1 [3], the binding result was “binds”.

B4: OsNR2 GCCGAC probe, 29 bp (dsDNA)
DNA 1: CAGGAGCTCGATGTAGCCGACCTCGTCGA
DNA 2: TCGACGAGGTCGGCTACATCGAGCTCCTG
In the case of B4, the binding result with OsDREB1C-m1 (A10_) and with OsDREB1C (WT) [4] was “binds” each time.
